How the values were obtained:
C57Bl/6J mice = assay: Core body temperature of aged mice; type: in vivo, mouse; settings: mice aged 110 weeks; 40 mg/kg IP every 3 weeks from age 55 weeks; vs isotype control IgG
Experimental: From age 55 weeks (human equivalent of ˜45 years old (i.e. middle age)) to age 110 weeks (human equivalent of ˜75 years old), mice were administered with 40 mg/kg of either X203 or isotype-matched control IgG via intra-peritoneal injection every 3 weeks.
At age 110 weeks, frailty was assessed using the Mouse Frailty Index described in Rizzo et al. Curr Protoc Mouse Biol. (2018) 8(2):e45, which is hereby incorporated by reference in its entirety. In this protocol, mice are individually observed and evaluated for the absence or presence and severity of 27 different characteristics each scored as 0, 0.5, or 1 based on level of severity. A frailty index score is calculated as the cumulative score of all measures. As a separate measurement of frailty, core body temperature was recorded, as core body temperature is known to decrease with increasing frailty in mice (Reynolds et al., Mechanisms of Ageing and Development (1985) 30(2):143-52). Data were analysed by 2-way ANOVA.

[1] = tested on: Primary human cardiac fibroblasts; assay: IL11 or TGFβ1 stimulated fibroblasts with X203, X209 or IgG, western blot; type: cell-based; settings: IL11/TGFβ1 10 ng/ml, 24 hours; antibody 2 μg/ml
Experimental: FIG. 19. Western blot image showing the levels of p-ERK, ERK, p-P90RSK, P90RSK, p-LKB1, LKB1, p-AMPK, AMPK, p-mTOR, mTOR, p-p70S6K, p70S6K, p-S6RP, S6RP, SMA, and GAPDH in primary human cardiac fibroblasts that are unstimulated (BL) or stimulated for 24 hours with either IL11 or TGFβ1 in the presence of X203, X209, or IgG (11E10) isotype control. IL11/TGFβ1 (10 ng/ml), IgG/X203/X209 (2 μg/ml).
Primary human cardiac fibroblasts were stimulated with IL11 or TGFβ1, or unstimulated (BL).

[2] = tested on: Primary human hepatocytes; assay: Hepatocytes stimulated with IL-11, BSA or palmitate with X203, X209 or IgG, western blot; type: cell-based; settings: 24 hours; antibody 2 μg/ml; IL11 10 ng/ml or palmitate 0.5 mM
Experimental: FIG. 20. Western blot image showing the levels of p-ERK, ERK, p-P90RSK, P90RSK, p-LKB1, LKB1, p-AMPK, AMPK, p-Acetyl-CoA Carboxylase (p-ACC), Acetyl-CoA Carboxylase (ACC), p-mTOR, mTOR, p-p70S6K, p70S6K, p-S6RP, S6RP in primary human hepatocytes that are unstimulated (BL) or stimulated for 24 hours with either IL11, 0.5% BSA, or palmitate (saturated fatty acid) in the presence of X203, X209, or IgG (11E10) isotype control. IL11 (10 ng/ml), IgG/X203/X209 (2 μg/ml), palmitate (0.5 mM) conjugated in free BSA (0.5% BSA solution) in the ratio of 6:1.
Primary human hepatocytes (stimulated with IL-11, BSA or palmitate, or unstimulated) were treated with X203 (anti-IL-11 antagonist antibody) and X209 (anti-IL-11Rα antagonist antibody). […] Treatment with X203 or X209 essentially reverses the effect of palmitate stimulation on these markers to the levels observed in the unstimulated control.

AML12 = assay: Senescence reversal experiment, qPCR at day 10; type: cell-based, mouse; settings: 2 μg/ml for 72 hours after 7 days senescence induction; vs IgG
Experimental: FIG. 25. (25A) Schematic of senescence reversal experiment for data shown in B-D. Senescent AML12 were generated for 7 days as described above. IgG/X203/X209 (2 μg/ml) was added into the cultures at the end of senescence induction period for 72 hours; cells were harvested at day 10 for RNA extraction and subsequent qPCR experiments. Relative mRNA expression of (25B) Cdkn1a (p21), (25C) Il1β, and (25D) Il11.
Briefly, senescent AML12 were generated for 7 days as described above, but IgG/X203/X209 (2 μg/ml) was added into the cultures at the end of senescence induction period for 72 hours.
Senescent AML12 were generated by treating the cells with a sub-lethal concentration of H2O2 (0.75 mM) for 1 hour, followed by 23 hours recovery per day, for 7 days as described (Tripathi, Yen, and Singh 2020, STAR Protocols 1 (2): 100064). For prevention study, AML12 cells were treated with 2 ug/ml of either IgG or X209 during the recovery period of the senescence induction stage (from day 1 to day 7); cells were harvested for total RNA collection at day 10. For reversal study, senescence was first induced for seven days followed by 2 ug/ml of IgG, X203, or X209 treatment for 3 days; cells were harvested for total RNA collection at day 10.
Total RNA was extracted from AML12 or snap-frozen tissues using Trizol (Invitrogen) and RNeasy Mini Kit (Qiagen). […] using iScript cDNA Synthesis Kit (Biorad). Gene expression analysis was performed on duplicate samples with either TaqMan (Applied Biosystems) for Il11 (Mm00434162) or fast SYBR green (Qiagen) technology using StepOnePlus™ (Applied Biosystem) for Ccl2, Ccl5, Gapdh, Il1β, Il6, Il8, p16, p21, Tnfα, over 40 cycles. Expression data were normalized to GAPDH mRNA expression and fold change was calculated using 2^−ΔΔct method.

B1: X203: mouse anti-mouse IL-11 IgG antagonist antibody; VH SEQ ID NO:22, VL SEQ ID NO:23 (antibody, V domains shown)
VH: EVQLQQSGPELVKPGASVKIPCKASGYTFTDYNMDWVKQSHGKSLEWIGDINPHNGGPIYNQKFTGKATLTVDKSSSTAYMELRSLTSEDTAVYYCARGELGHWYFDVWGTGTTVTVSS
VL: DIVLTQSPASLAVSLGQRATISCRASKSVSTSGYSYIHWYQQKPGQPPKLLIYLASNLDSGVPARFSGSGSGTDFTLNIHPVEEEDAATYYCQHSRDLPPTFGGGTKLEIK
body temperature (C57Bl/6J mice): significantly higher | level of phosphorylation of markers ERK, p90RSK, LKB1, mTOR, p70S6K and S6RP [1]: significantly reduce | levels of p-AMPK and p-ACC [2]: increase | levels of phosphorylated markers p-ERK, p-p90RSK, p-LKB1, p-mTOR, p-p70S6K and p-S6RP [2]: reduces | inflammation marker IL-1 b (AML12): significantly reduce | inflammation marker IL-11 (AML12): significantly reduce | senescence marker p21 (AML12): significantly reduce
